In patent publication US20250043302A1, “MUTATED HYDROXYPHENYLPYRUVATE DIOXYGENASE POLYPEPTIDE, AND CODING GENE AND USE THEREOF” (BEIJING DABEINONG BIOTECHNOLOGY CO., LTD., priority 2021, published 2025):

Key:
Type in all cases: in vivo
[1] = test system: Arabidopsis thaliana T1 plants; test: Topramezone tolerance of transgenic Arabidopsis thaliana T1 plants (spray, bleached leaf area grade, damage score); settings: 7 DAT, Table 4; for Classification and statistics of the grade of pesticide damage: Grade 0 / Classification and statistics of the grade of pesticide damage: Grade 1 / Classification and statistics of the grade of pesticide damage: Grade 2 / Classification and statistics of the grade of pesticide damage: Grade 3: number of plants; for Scores: pesticide damage score 0-100
Procedure, shortened: (§1)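 Damage graded 0–3 from the proportion of bleached leaf area 7 days after spraying. Plants were glufosinate-selected T1 lines, 18 days after sowing, plus vector and wild-type controls. Rates: mesotrione 52.5–420, isoxaflutole 35–280, topramezone 25–200 g ai/ha, with water (0×).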

[2] = test system: Arabidopsis thaliana T1 plants; test: Isoxaflutole tolerance of transgenic Arabidopsis thaliana T1 plants (spray, bleached leaf area grade, damage score); design: Scores (pesticide damage): scale not given here; settings: spray, Arabidopsis thaliana T1 plants; for Classification and statistics of the grade of pesticide damage: Grade 0 (number of plants) / Classification and statistics of the grade of pesticide damage: Grade 1 (number of plants) / Classification and statistics of the grade of pesticide damage: Grade 2 (number of plants) / Classification and statistics of the grade of pesticide damage: Grade 3 (number of plants): 16 plants
Procedure, shortened: as §1

[3] = test system: Arabidopsis thaliana T1 plants; test: Mesotrione tolerance of transgenic Arabidopsis thaliana T1 plants (spray, bleached leaf area grade, damage score); design: Scores: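 damage score 0-100 computed as Σ(N×S)/(T×M)×100 over grades 0-3 with higher meaning more damage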; settings: Arabidopsis thaliana T1 plants; for Grade 0 (classification and statistics of the grade of pesticide damage; number of plants) / Grade 1 (classification and statistics of the grade of pesticide damage; number of plants) / Grade 2 (classification and statistics of the grade of pesticide damage; number of plants) / Grade 3 (classification and statistics of the grade of pesticide damage; number of plants): 16 plants
Procedure, shortened: as §1

[4] = isoxaflutole 35 g ai/ha (0.5x field concentration)
[5] = isoxaflutole 70 g ai/ha (1x field concentration)

Molecule	Classification and statistics of the grade of pesticide damage: Grade 0 ([1]; topramezone 25 g ai/ha (1×))	Classification and statistics of the grade of pesticide damage: Grade 1 ([1]; topramezone 25 g ai/ha (1×))	Classification and statistics of the grade of pesticide damage: Grade 2 ([1]; topramezone 25 g ai/ha (1×))	Classification and statistics of the grade of pesticide damage: Grade 3 ([1]; topramezone 25 g ai/ha (1×))	Classification and statistics of the grade of pesticide damage: Grade 0 ([1]; topramezone 100 g ai/ha (4×))	Classification and statistics of the grade of pesticide damage: Grade 1 ([1]; topramezone 100 g ai/ha (4×))	Classification and statistics of the grade of pesticide damage: Grade 2 ([1]; topramezone 100 g ai/ha (4×))	Classification and statistics of the grade of pesticide damage: Grade 3 ([1]; topramezone 100 g ai/ha (4×))	Scores ([1]; topramezone 25 g ai/ha (1×))	Scores ([1]; topramezone 100 g ai/ha (4×))	Resistance evaluation ([1]; topramezone 25 g ai/ha (1×))	Resistance evaluation ([1]; topramezone 100 g ai/ha (4×))	Resistance evaluation [2, 4]	Scores (pesticide damage) [2, 4]	Classification and statistics of the grade of pesticide damage: Grade 0 (number of plants) [2, 4]	Classification and statistics of the grade of pesticide damage: Grade 1 (number of plants) [2, 4]	Classification and statistics of the grade of pesticide damage: Grade 2 (number of plants) [2, 4]	Classification and statistics of the grade of pesticide damage: Grade 3 (number of plants) [2, 4]	Resistance evaluation [2, 5]	Scores (pesticide damage) [2, 5]	other results
GmHPPDm-F372A-02: nucleotide sequence encoding Glycine max HPPD with F372A; vector DBN11747 (nucleic acid, GmHPPDm-F372A-02 Nucleotide Sequence, vector DBN11747) DNA: ATGCCAATGTACACACCATCGCTCTCCGCCCCTTCTTCCAACCATATTCAGCCATCCGTGACTCTGCCTCTCTACATCACAACCACCAAGTTGAACCTGAAGCAGCAGCACCATACGACTCCTATGCCTATACCCATGTGCAATGAGATCCAAGCACAGGCTCAGGCACAAGCTCAACCCGGATTCAAACTCGTGGGATTCAAGAACTTCGTCCGTACCAATCCAAAATCTGACCGCTTCCAGGTGAACAGATTCCACCACATAGAGTTTTGGTGTACTGATGCAACGAATGCTTCGAGGAGGTTTTCATGGGGCTTAGGCATGCCGATTGTAGCAAAGTCAGACCTTTCTACAGGGAACCAAATTCATGCAAGCTATCTGCTCCGCTCAGGTGATTTGTCTTTCTTGTTCTCAGCTCCATATTCTCCATCATTATCTGCTGGGTCATCAGCAGCATCTAGTGCGTCGATCCCTAGCTTTGATGCCGCCACCTGCCTCGCCTTCGCCGCCAAACATGGATTTGGTGTTCGCGCCATTGCTCTTGAGGTTGCCGATGCCGAGGCTGCTTTTAGCGCCTCCGTCGCCAAGGGAGCTGAGCCTGCGTCACCTCCTGTTCTTGTTGATGATCGAACTGGTTTTGCTGAAGTGCGTCTTTACGGCGACGTGGTGCTCAGATATGTTAGTTACAAGGATGCTGCTCCTCAAGCGCCGCACGCTGATCCTTCAAGATGGTTTCTTCCGGGGTTTGAGGCCGCTGCTAGTTCATCTTCCTTCCCGGAGTTGGATTACGGCATACGGCGGCTTGACCATGCTGTCGGCAATGTTCCTGAGCTTGCTCCGGCGGTACGGTACTTGAAAGGTTTCTCCGGGTTCCATGAATTTGCAGAGTTCACGGCGGAAGATGTTGGAACAAGTGAAAGCGGATTGAATTCTGTTGTTTTGGCCAACAACAGTGAAACTGTTCTGCTCCCCCTCAATGAACCAGTTTATGGCACAAAGCGCAAGAGCCAGATTGAAACATATCTCGAGCACAATGAAGGCGCCGGCGTCCAGCATCTTGCTTTGGTGACTCATGATATCTTCACAACACTTAGGGAGATGAGGAAGAGGAGTTTCCTCGGCGGGTTTGAATTCATGCCCAGTCCCCCGCCGACCTACTATGCAAATCTGCACAACAGGGCTGCAGATGTGCTGACTGTAGACCAGATCAAGCAATGTGAAGAACTTGGAATTTTAGTGGATAGAGACGACCAAGGTACACTACTTCAAATAGCCACCAAACCAGTCGGTGACAGACCAACAATTTTCATCGAGATTATACAAAGAATTGGATGCATGGTCGAGGATGAAGAAGGGAAGGTGTACCAGAAGGGAGCATGTGGTGGTTTTGGGAAAGGAAATTTTTCTGAGCTGTTTAAATCCATCGAGGAATATGAGAAAACCTTAGAAGCTAAAAGAACTGCATGA	0	12	4	0	0	0	0	16	42	100	poorly	non-resistant (non-resistant plants (scores 68-100))	Poorly	65	0	3	11	2	Non-resistant	100	Classification and statistics of the grade of pesticide damage: Grade 0 (number of plants) [2, 5]: 0; Classification and statistics of the grade of pesticide damage: Grade 1 (number of plants) [2, 5]: 0; Classification and statistics of the grade of pesticide damage: Grade 2 (number of plants) [2, 5]: 0; Classification and statistics of the grade of pesticide damage: Grade 3 (number of plants) [2, 5]: 16; Resistance evaluation ([3]; mesotrione 52.5 g ai/ha): Poorly resistant; Scores ([3]; mesotrione 52.5 g ai/ha): 67; Grade 0 (classification and statistics of the grade of pesticide damage; number of plants) ([3]; mesotrione 52.5 g ai/ha): 0; Grade 1 (classification and statistics of the grade of pesticide damage; number of plants) ([3]; mesotrione 52.5 g ai/ha): 2; Grade 2 (classification and statistics of the grade of pesticide damage; number of plants) ([3]; mesotrione 52.5 g ai/ha): 12; Grade 3 (classification and statistics of the grade of pesticide damage; number of plants) ([3]; mesotrione 52.5 g ai/ha): 2; Resistance evaluation ([3]; mesotrione 105 g ai/ha): Non-resistant; Scores ([3]; mesotrione 105 g ai/ha): 100; Grade 0 (classification and statistics of the grade of pesticide damage; number of plants) ([3]; mesotrione 105 g ai/ha): 0; Grade 1 (classification and statistics of the grade of pesticide damage; number of plants) ([3]; mesotrione 105 g ai/ha): 0; Grade 2 (classification and statistics of the grade of pesticide damage; number of plants) ([3]; mesotrione 105 g ai/ha): 0; Grade 3 (classification and statistics of the grade of pesticide damage; number of plants) ([3]; mesotrione 105 g ai/ha): 16
GmHPPDm-F383W-02: nucleotide sequence encoding Glycine max HPPD with F383W; vector DBN11748 (nucleic acid, GmHPPDm-F383W-02 Nucleotide Sequence, vector DBN11748) DNA: ATGCCAATGTACACACCATCGCTCTCCGCCCCTTCTTCCAACCATATTCAGCCATCCGTGACTCTGCCTCTCTACATCACAACCACCAAGTTGAACCTGAAGCAGCAGCACCATACGACTCCTATGCCTATACCCATGTGCAATGAGATCCAAGCACAGGCTCAGGCACAAGCTCAACCCGGATTCAAACTCGTGGGATTCAAGAACTTCGTCCGTACCAATCCAAAATCTGACCGCTTCCAGGTGAACAGATTCCACCACATAGAGTTTTGGTGTACTGATGCAACGAATGCTTCGAGGAGGTTTTCATGGGGCTTAGGCATGCCGATTGTAGCAAAGTCAGACCTTTCTACAGGGAACCAAATTCATGCAAGCTATCTGCTCCGCTCAGGTGATTTGTCTTTCTTGTTCTCAGCTCCATATTCTCCATCATTATCTGCTGGGTCATCAGCAGCATCTAGTGCGTCGATCCCTAGCTTTGATGCCGCCACCTGCCTCGCCTTCGCCGCCAAACATGGATTTGGTGTTCGCGCCATTGCTCTTGAGGTTGCCGATGCCGAGGCTGCTTTTAGCGCCTCCGTCGCCAAGGGAGCTGAGCCTGCGTCACCTCCTGTTCTTGTTGATGATCGAACTGGTTTTGCTGAAGTGCGTCTTTACGGCGACGTGGTGCTCAGATATGTTAGTTACAAGGATGCTGCTCCTCAAGCGCCGCACGCTGATCCTTCAAGATGGTTTCTTCCGGGGTTTGAGGCCGCTGCTAGTTCATCTTCCTTCCCGGAGTTGGATTACGGCATACGGCGGCTTGACCATGCTGTCGGCAATGTTCCTGAGCTTGCTCCGGCGGTACGGTACTTGAAAGGTTTCTCCGGGTTCCATGAATTTGCAGAGTTCACGGCGGAAGATGTTGGAACAAGTGAAAGCGGATTGAATTCTGTTGTTTTGGCCAACAACAGTGAAACTGTTCTGCTCCCCCTCAATGAACCAGTTTATGGCACAAAGCGCAAGAGCCAGATTGAAACATATCTCGAGCACAATGAAGGCGCCGGCGTCCAGCATCTTGCTTTGGTGACTCATGATATCTTCACAACACTTAGGGAGATGAGGAAGAGGAGTTTCCTCGGCGGGTTTGAATTCATGCCCAGTCCCCCGCCGACCTACTATGCAAATCTGCACAACAGGGCTGCAGATGTGCTGACTGTAGACCAGATCAAGCAATGTGAAGAACTTGGAATTTTAGTGGATAGAGACGACCAAGGTACACTACTTCAAATATTCACCAAACCAGTCGGTGACAGACCAACAATTTGGATCGAGATTATACAAAGAATTGGATGCATGGTCGAGGATGAAGAAGGGAAGGTGTACCAGAAGGGAGCATGTGGTGGTTTTGGGAAAGGAAATTTTTCTGAGCTGTTTAAATCCATCGAGGAATATGAGAAAACCTTAGAAGCTAAAAGAACTGCATGA	0	3	9	4	0	0	0	16	69	100	non-resistant (non-resistant plants (scores 68-100))	non-resistant (non-resistant plants (scores 68-100))	Non-resistant	81	0	0	9	7	Non-resistant	100	Classification and statistics of the grade of pesticide damage: Grade 0 (number of plants) [2, 5]: 0; Classification and statistics of the grade of pesticide damage: Grade 1 (number of plants) [2, 5]: 0; Classification and statistics of the grade of pesticide damage: Grade 2 (number of plants) [2, 5]: 0; Classification and statistics of the grade of pesticide damage: Grade 3 (number of plants) [2, 5]: 16; Resistance evaluation ([3]; mesotrione 52.5 g ai/ha): Non-resistant; Scores ([3]; mesotrione 52.5 g ai/ha): 100; Grade 0 (classification and statistics of the grade of pesticide damage; number of plants) ([3]; mesotrione 52.5 g ai/ha): 0; Grade 1 (classification and statistics of the grade of pesticide damage; number of plants) ([3]; mesotrione 52.5 g ai/ha): 0; Grade 2 (classification and statistics of the grade of pesticide damage; number of plants) ([3]; mesotrione 52.5 g ai/ha): 0; Grade 3 (classification and statistics of the grade of pesticide damage; number of plants) ([3]; mesotrione 52.5 g ai/ha): 16; Resistance evaluation ([3]; mesotrione 105 g ai/ha): Non-resistant; Scores ([3]; mesotrione 105 g ai/ha): 100; Grade 0 (classification and statistics of the grade of pesticide damage; number of plants) ([3]; mesotrione 105 g ai/ha): 0; Grade 1 (classification and statistics of the grade of pesticide damage; number of plants) ([3]; mesotrione 105 g ai/ha): 0; Grade 2 (classification and statistics of the grade of pesticide damage; number of plants) ([3]; mesotrione 105 g ai/ha): 0; Grade 3 (classification and statistics of the grade of pesticide damage; number of plants) ([3]; mesotrione 105 g ai/ha): 16
